Reference: paper PMC7783346

Tested on: His6-KfrA G38A (plasmid RA3 (IncU; Aeromonas hydrophila in Fig S1/S3))
Assay: EMSA
Details: EMSA: 50 mM Tris-HCl pH 8.0, 10 mM MgCl2, 50 mM NaCl, 37 C, 30 min, 10 nM EcoRI-NdeI-digested plasmid DNA (vector fragment as internal competitor), 20 ul …

Substance “WT OK (kfrAp), EcoRI-NdeI fragment of pESB2.68” has a K half of 260 nM.
